Assay [1] concerns the target human CCR5 (untagged; endogenous on human leukocytes, parent of the CCR5/CCR2b chimeras, on U87-CD4-CCR5 cells) (human) (UniProt P51681). The assay can be described thus: inhibition of ^125I-MIP-1α binding to activated T cells (CD3 blasts) by 10 µg/ml mAb.
The target is the same in assay [2]. As to the kind of experiment: cell-based or functional assay.
In assay [3] the target is FLAG-tagged human CCR5 expressed on L1.2 murine pre-B lymphoma cells (human) (UniProt P51681). The assay can be described thus: cell-based or functional assay.
Assay [4] has as its target human CCR5 (untagged; endogenous on human leukocytes, parent of the CCR5/CCR2b chimeras, on U87-CD4-CCR5 cells) (human) (UniProt P51681). The assay can be described thus: inhibition of ^125I-RANTES binding to activated T cells (CD3 blasts) by 10 µg/ml mAb.

The results in this text go back to patent publication US6528625.

For the substance murine monoclonal antibody 2D7, the percent inhibition of ^125I-MIP-1α binding in assay [1] stood at 85%. For the same substance, in assay [2], the percent inhibition of RANTES and MIP-1α chemotactic responses of T cell lines is 60 to 80%; the percent inhibition of chemotaxis of activated, IL-2 maintained T cells to MIP-1α fell in the range of 60 to 80%. For the same substance, the mAb concentration giving complete inhibition of chemotaxis of CCR5 L1.2 cells to RANTES, MIP-1α and MIP-1β in assay [3] worked out at 20 µg/mL. Moreover, the percent inhibition of ^125I-RANTES binding in assay [4] is 95%.
